Here are results for eight proteins from article PMC11332825, “Residues in the fructose-binding pocket are required for ketohexokinase-A activity” (The Journal of Biological Chemistry, 2024).

The series deals with the molecule itself. As to the kind of experiment: mass photometry; 100 nM protein diluted in PBS (pH 7.4), room temperature, 60 s acquisition, TwoMP mass photometer; monomer to dimer.

For orientation: stoichiometry N means the number of molecules, sites or subunits per partner or assembly.

Substitutions are numbered along the chain they refer to. Names may count otherwise.

B1: human ketohexokinase-A (KHK-A), wild type (enzyme)
chain: QILCVGLVVLDVISLVDKYPKEDSEIRCLSQRWQRGGNASNSCTVLSLLGAPCAFMGSMAPGHVADFVLDDLRRYSVDLRYTVFQTTGSVPIATVIINEASGSRTILYYDRSLPDVSATDFEKVDLTQFKWIHIEGRNASEQVKMLQRIDAHNTRQPPEQKIRVSVEVEKPREELFQLFGYGDVVFVSKDVAKHLGFQSAEEALRGLYGRVRKGAVLVCAWAEEGADALGPDGKLLHSDAFPPPRVVDTLGAGDTFNASVIFSLSQGRSVQEALRFGCQVAGKKCGLQGFDGIV
notes: ketohexokinase, splice isozyme A (KHK-A), human; good electron density for residues 3 to 298; theoretical molecular weight of the monomer printed as 34.65 kDa; Cloned into pET-28b(+) by GenScript; also called WT KHK-A; WT; source: E. coli BL21-CodonPlus-RIL, purified (Ni-NTA, Superdex 200 gel filtration)
As for B1, the “stoichiometry N” value was found to be 2.

B2: human ketohexokinase-A D15A (enzyme)
chain: B1 chain with D11A
notes: ketohexokinase, splice isozyme A (KHK-A), human, with D15A; Expressed and purified as described for WT KHK-A; PDB 2HLZ is the wild-type parent; also called KHK-A D15A; source: E. coli BL21-CodonPlus-RIL, purified (Ni-NTA, Superdex 200 gel filtration)
In the case of B2, the “stoichiometry N” value was found to be 2.

B3: human ketohexokinase-A R141E (enzyme)
chain: B1 chain with R137E
notes: ketohexokinase, splice isozyme A (KHK-A), human, with R141E; Results and legends print R141E; the abstract and the discussion speak of R141A / alanine at R141; PDB 2HLZ is the wild-type parent; source: E. coli BL21-CodonPlus-RIL, purified (Ni-NTA, Superdex 200 gel filtration)
Turning to B3, the “stoichiometry N” value turned out to be 2.

B4: human ketohexokinase-A N45A (enzyme)
chain: B1 chain with N41A
notes: ketohexokinase, splice isozyme A (KHK-A), human, with N45A; Expressed and purified as described for WT KHK-A; PDB 2HLZ is the wild-type parent; source: E. coli BL21-CodonPlus-RIL, purified (Ni-NTA, Superdex 200 gel filtration)
Take B4: the “stoichiometry N” value amounted to 2.

B5: human ketohexokinase-A N42A (enzyme)
chain: B1 chain with N38A
notes: ketohexokinase, splice isozyme A (KHK-A), human, with N42A; Expressed and purified as described for WT KHK-A; PDB 2HLZ is the wild-type parent; also called KHK-A N42A; source: E. coli BL21-CodonPlus-RIL, purified (Ni-NTA, Superdex 200 gel filtration)
On to B5, for which the “stoichiometry N” value came to 2.

B6: human ketohexokinase-A K174A (enzyme)
chain: B1 chain with K170A
notes: ketohexokinase, splice isozyme A (KHK-A), human, with K174A; Expressed and purified as described for WT KHK-A; PDB 2HLZ is the wild-type parent; source: E. coli BL21-CodonPlus-RIL, purified (Ni-NTA, Superdex 200 gel filtration)
Regarding B6, the “stoichiometry N” value worked out at 2.

B7: human ketohexokinase-A R141E/K174A double mutant (enzyme)
chain: B1 chain with R137E, K170A
notes: ketohexokinase, splice isozyme A (KHK-A), human, with R141E and K174A; Expressed and purified as described for WT KHK-A; PDB 2HLZ is the wild-type parent; source: E. coli BL21-CodonPlus-RIL, purified (Ni-NTA, Superdex 200 gel filtration)
Turning to B7, the “stoichiometry N” value was 2.

B8: human ketohexokinase-A N42K (enzyme)
chain: B1 chain with N38K
notes: ketohexokinase, splice isozyme A (KHK-A), human, with N42K; Expressed and purified as described for WT KHK-A; PDB 2HLZ is the wild-type parent; source: E. coli BL21-CodonPlus-RIL, purified (Ni-NTA, Superdex 200 gel filtration)
For B8, the “stoichiometry N” value is 2.
